According to article PMC6864843 (2019):

What was measured:
[1] = biological target: Recombinant AAV1 particles (Adeno-Associated Virus serotype 1 capsid) (Adeno-associated virus 1) (UniProt Q9WBP8); assay: SPR; BIAcore T200; AAV1 particles immobilised on a CM5 chip by amide coupling (in sodium acetate pH 4.5); AAVR flowed at different concentrations, 30 μL/min, 25 °C, 100 mM NaCl in 10 mM HEPES pH 7.4
[2] = biological target: Recombinant AAV2 particles (Adeno-Associated Virus serotype 2 capsid) (Adeno-associated virus 2); assay: ELISA; sandwich 'VIRELISA': 10 μg AAVR-His coated per well, AAV2 sample (1.0 × 10^8 v.g. in Table 1) 1 h at RT, blocked with BSA, AAVR-SBP-His probe 1 h in PBST, HRP-streptavidin, ABTS, read at 450 nm; probe concentration, SAV-HRP dilution and ABTS time varied in Table 1
Chain of Recombinant AAV2 particles (Adeno-Associated Virus serotype 2 capsid) (Adeno-associated virus 2) (O56652 whole entry, chain 1 of 3): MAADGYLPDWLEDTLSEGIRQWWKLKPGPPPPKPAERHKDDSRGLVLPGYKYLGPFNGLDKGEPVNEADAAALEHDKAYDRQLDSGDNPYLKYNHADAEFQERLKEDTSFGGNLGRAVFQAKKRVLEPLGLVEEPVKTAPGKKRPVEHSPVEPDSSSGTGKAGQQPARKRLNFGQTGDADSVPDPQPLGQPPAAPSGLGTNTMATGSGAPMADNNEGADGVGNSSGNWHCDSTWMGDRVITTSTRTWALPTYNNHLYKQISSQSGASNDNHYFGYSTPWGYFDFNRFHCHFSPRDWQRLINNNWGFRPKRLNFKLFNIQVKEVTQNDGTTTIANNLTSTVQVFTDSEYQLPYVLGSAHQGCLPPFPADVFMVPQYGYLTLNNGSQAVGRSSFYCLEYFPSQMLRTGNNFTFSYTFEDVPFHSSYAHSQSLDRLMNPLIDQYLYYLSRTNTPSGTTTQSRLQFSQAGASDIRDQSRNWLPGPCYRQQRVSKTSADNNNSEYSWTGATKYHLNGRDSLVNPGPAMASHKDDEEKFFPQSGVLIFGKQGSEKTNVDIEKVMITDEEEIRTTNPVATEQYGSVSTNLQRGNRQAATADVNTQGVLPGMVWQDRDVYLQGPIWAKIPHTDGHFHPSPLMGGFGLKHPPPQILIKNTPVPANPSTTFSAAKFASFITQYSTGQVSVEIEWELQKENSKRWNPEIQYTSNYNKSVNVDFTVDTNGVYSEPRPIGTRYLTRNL
Chain of Recombinant AAV2 particles (Adeno-Associated Virus serotype 2 capsid) (Adeno-associated virus 2) (P03135 139-735, tags left off, chain 2 of 3, further chain): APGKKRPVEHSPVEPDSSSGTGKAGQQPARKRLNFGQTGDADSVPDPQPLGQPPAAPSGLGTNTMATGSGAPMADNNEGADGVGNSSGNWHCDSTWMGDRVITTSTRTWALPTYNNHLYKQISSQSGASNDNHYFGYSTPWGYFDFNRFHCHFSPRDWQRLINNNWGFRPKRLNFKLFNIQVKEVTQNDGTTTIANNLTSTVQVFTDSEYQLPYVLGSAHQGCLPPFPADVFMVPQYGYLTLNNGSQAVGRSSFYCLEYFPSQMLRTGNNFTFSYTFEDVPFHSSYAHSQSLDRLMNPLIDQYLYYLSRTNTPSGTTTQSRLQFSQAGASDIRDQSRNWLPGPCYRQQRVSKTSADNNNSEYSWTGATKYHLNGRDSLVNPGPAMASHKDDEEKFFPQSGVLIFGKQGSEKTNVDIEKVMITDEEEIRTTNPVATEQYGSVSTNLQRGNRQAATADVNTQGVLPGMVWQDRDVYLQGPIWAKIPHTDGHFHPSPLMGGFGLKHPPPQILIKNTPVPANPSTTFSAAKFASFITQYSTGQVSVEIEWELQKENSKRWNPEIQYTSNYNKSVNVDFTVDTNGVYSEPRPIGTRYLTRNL
Chain of Recombinant AAV2 particles (Adeno-Associated Virus serotype 2 capsid) (Adeno-associated virus 2) (P03135 203-735 limits assumed, chain 3 of 3, further chain): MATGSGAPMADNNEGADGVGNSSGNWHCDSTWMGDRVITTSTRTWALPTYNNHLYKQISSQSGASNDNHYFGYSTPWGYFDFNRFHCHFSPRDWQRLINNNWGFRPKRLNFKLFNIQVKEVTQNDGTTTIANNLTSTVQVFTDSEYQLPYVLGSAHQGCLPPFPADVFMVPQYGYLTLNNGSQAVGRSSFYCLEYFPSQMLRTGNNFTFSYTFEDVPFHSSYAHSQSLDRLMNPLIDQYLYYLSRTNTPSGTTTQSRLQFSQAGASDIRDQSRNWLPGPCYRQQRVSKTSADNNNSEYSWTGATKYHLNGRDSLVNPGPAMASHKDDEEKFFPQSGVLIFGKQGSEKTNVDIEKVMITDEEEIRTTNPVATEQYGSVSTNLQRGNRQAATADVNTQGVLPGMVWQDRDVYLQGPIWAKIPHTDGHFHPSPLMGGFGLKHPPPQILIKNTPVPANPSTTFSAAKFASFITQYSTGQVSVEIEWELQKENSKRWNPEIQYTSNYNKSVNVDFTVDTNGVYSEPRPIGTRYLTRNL

[3] = biological target: T1, Recombinant AAV1 particles (Adeno-Associated Virus serotype 1 capsid) (Adeno-associated virus 1, UniProt Q9WBP8 1-736); assay: SPR
T1 chain 1: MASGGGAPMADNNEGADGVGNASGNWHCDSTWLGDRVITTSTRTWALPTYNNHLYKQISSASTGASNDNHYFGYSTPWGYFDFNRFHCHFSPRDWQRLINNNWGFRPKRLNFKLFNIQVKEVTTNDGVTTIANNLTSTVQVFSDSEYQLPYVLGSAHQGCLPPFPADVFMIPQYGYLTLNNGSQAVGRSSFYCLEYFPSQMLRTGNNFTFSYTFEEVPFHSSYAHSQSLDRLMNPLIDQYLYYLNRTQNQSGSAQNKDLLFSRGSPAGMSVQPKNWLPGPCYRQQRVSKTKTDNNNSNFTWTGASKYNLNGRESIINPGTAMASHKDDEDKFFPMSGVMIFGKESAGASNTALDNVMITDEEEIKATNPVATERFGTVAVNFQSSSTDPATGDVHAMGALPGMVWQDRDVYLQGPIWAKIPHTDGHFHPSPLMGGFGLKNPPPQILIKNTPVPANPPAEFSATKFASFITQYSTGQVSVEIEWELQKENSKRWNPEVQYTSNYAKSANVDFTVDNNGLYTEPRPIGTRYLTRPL
T1 chain 2: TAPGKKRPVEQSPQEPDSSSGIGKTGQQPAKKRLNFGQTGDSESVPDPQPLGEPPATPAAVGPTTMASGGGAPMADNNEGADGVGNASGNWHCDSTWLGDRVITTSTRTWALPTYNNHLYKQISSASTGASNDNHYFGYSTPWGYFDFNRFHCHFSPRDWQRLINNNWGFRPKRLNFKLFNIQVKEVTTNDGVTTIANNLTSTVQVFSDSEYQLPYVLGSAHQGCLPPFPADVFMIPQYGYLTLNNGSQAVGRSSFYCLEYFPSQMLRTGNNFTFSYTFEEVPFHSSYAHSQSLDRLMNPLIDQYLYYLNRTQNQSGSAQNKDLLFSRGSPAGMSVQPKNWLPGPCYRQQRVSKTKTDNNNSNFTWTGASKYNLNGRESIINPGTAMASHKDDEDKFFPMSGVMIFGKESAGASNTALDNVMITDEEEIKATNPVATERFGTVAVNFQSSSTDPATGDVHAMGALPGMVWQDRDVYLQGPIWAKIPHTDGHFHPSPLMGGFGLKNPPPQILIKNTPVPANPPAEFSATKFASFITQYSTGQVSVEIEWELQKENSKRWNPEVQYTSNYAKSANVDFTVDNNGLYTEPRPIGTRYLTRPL
T1 chain 3: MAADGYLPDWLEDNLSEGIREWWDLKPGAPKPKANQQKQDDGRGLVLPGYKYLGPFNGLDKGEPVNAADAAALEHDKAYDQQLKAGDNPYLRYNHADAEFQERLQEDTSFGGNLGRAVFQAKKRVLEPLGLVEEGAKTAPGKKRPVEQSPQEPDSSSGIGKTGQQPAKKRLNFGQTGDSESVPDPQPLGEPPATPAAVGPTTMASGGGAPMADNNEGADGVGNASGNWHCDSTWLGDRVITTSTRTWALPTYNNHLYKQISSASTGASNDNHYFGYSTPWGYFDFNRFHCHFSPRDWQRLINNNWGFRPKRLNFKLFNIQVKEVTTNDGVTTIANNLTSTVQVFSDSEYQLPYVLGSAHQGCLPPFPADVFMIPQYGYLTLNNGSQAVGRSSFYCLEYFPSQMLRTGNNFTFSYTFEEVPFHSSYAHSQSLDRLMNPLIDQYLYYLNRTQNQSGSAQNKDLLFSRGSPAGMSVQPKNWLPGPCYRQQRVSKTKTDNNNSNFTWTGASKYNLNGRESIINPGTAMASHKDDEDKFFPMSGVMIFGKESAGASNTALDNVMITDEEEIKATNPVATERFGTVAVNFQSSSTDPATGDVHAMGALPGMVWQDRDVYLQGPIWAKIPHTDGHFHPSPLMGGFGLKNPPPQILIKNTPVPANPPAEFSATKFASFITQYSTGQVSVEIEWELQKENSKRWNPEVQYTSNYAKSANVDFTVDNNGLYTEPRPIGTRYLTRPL

## Soluble recombinant AAVR (analyte of the BIAcore assay) (domain or fragment)
[1]
  Kd: 255 nM

## AAVR-SBP-His (AAVR PKD domains 1–5 with C-terminal streptavidin binding peptide and 6× His-tag in tandem) (domain or fragment)
[2]
  absorbance at 450 nm, AAVR-SBP-His 50 μg/mL (absorbance (450 nm)): 0.662
  absorbance at 450 nm, AAVR-SBP-His 100 μg/mL (absorbance (450 nm)): 0.861
  absorbance at 450 nm, ABTS incubating time 10 min (absorbance (450 nm)): 0.32
  absorbance at 450 nm, ABTS incubating time 15 min (absorbance (450 nm)): 0.663
  absorbance at 450 nm, ABTS incubating time 20 min (absorbance (450 nm)): 0.819
  absorbance at 450 nm, ABTS incubating time 30 min (absorbance (450 nm)): 1.33
  absorbance at 450 nm, SAV-HRP dilution 1/1000 (absorbance (450 nm)): 0.872
  absorbance at 450 nm, SAV-HRP dilution 1/2000 (absorbance (450 nm)): 0.798
  absorbance at 450 nm, SAV-HRP dilution 1/5000 (absorbance (450 nm)): 0.662

B1: Soluble recombinant AAVR (analyte of the BIAcore assay) (domain or fragment)
chain: SAGESVQITLPKNEVQLNAYVLQEPPKGETYTYDWQLITHPRDYSGEMEGKHSQILKLSKLTPGLYEFKVIVEGQNAHGEGYVNVTVKPEPRKNRPPIAIVSPQFQEISLPTTSTVIDGSQSTDDDKIVQYHWEELKGPLREEKISEDTAILKLSKLVPGNYTFSLTVVDSDGATNSTTANLTVNKAVDYPPVANAGPNQVITLPQNSITLFGNQSTDDHGITSYEWSLSPSSKGKVVEMQGVRTPTLQLSAMQEGDYTYQLTVTDTIGQQATAQVTVIVQPENNKPPQADAGPDKELTLPVDSTTLDGSKSSDDQKIISYLWEKTQGPDGVQLENANSSVATVTGLQVGTYVFTLTVKDERNLQSQSSVNVIVKEEINKPPIAKITGNVVITLPTSTAELDGSKSSDDKGIVSYLWTRDEGSPAAGEVLNHSDHHPILFLSNLVEGTYTFHLKVTDAKGESDTDRTTVEVKPD
[3]
  koff: 0.00184 s⁻¹
